Laboratory results as given in patent publication US20080230399A1, “Fructosylamine Oxidase” (priority 2003, published 2008).

Test: Determination of enzymatic activity (POD/Phenol/4A.A. method)
Assay type: biochemical
Conditions: substrate 10 mM, PPb pH 7.0 50 mM, absorbance at 505 nm; recombinant FAO produced by Escherichia coli compared with enzyme produced by wild-type Pichia sp. N1-1
Protocol: Reactivity of the purified enzyme prepared in Example 5 to fructosyl valine, N′-fructosyl lysine, fructosyl glycine, fructosyl alanine, fructosyl leucine, fructosyl phenylalanine, glucose and sarcosine was examined. The measurement was conducted using a solution containing a substrate (10 mM), PPb (pH 7.0, 50 mM), phenol (1.5 mM), 4-aminoantipyrine (1.5 mM) and peroxidase (2 U/ml), and changes in the absorbance at 505 nm were measured according to the POD/Phenol/4A.A. method. […] N1-1 strain of wild type.

activity and substrate specificity of the enzyme: higher activity
B1: recombinant FAO: Fructosylamine oxidase derived from Pichia sp. N1-1 (SEQ ID NO: 1), recombinantly produced in Escherichia coli DH5α/pTN1 and purified (protein, listed as Pichia sp.)
chain: MESIIIVGAGTFGLSTALQLARDGYKNIKCFDKFPVPSEIAAGNDSNKIFHYDYVAPLAKPNSKERLSLEALHLWKTDPVYKPYYHPVGFILAASSDAPLLHDKEYYEELQKNGLRNYRYISTPEEFREYLPILKGPLPNWRGYVLDGDNGWLHARDSLKSAYEECKRLGVEFVFGDDGEIVELLNENGKLTGIRARSGAIFSAQKYVLSSGANAVTLLNFQRQLEGKCFTLAHFKVTDEEAKAFKSLPVLFNAEKGFFFEADENNEIKICNEYPGFTHTNESGESIPLYRMEIPLESALEIRQYLKETMPQFADRPFTKTRICWCTDSPDMQLILCTHPEYTNLIVASGDSGNSFKIMPIIGKYVSKVVTKGDKGLDPEDKECWKWRPETWDKRGQVRWGGRYRVADLNEIEEWVSVENPTPHKLE
